Assay results from patent US11198713B2, “Agents modulating beta-catenin functions and methods thereof” (FOG PHARMACEUTICALS, INC., priority 2017, dated 2021).
Numbered stars: 1 amine (or outer) side, 2 acyl side, 3 side chain; on linkers, the order of the positions; unused ones are H or OH. Bridge positions count the residues as written; N and C are the ends. Square brackets hold non-standard residues; d marks the D form. Primed or numbered codes have the meaning given here. MB(10) = Monomer B = PyrS, pyrrolidine stapling residue with allyl carbamate, (S)-3-amino-1-(allyloxycarbonyl)pyrrolidine-3-carboxylic acid, C=CCOC(=O)N1CC[C@@](N[*:1])(C(=O)[*:2])C1; MB(8) = Monomer B (PyrS), pyrrolidine stapling residue bearing N-allyl carbamate (Alloc), forms carbamate staple with R8 by ring-closing olefin metathesis, i to i+7; MB(9) = Monomer B (PyrS), pyrrolidine stapling residue with N-allyloxycarbonyl (Alloc), forms a carbamate staple with R8 by olefin metathesis; MB″ = Monomer B (PyrS), pyrrolidine stapling residue with N-allyl carbamate, forms carbamate staple with R8 by olefin metathesis; MB(6) = Monomer B (PyrS), N-Alloc pyrrolidine stapling residue, forms carbamate staple with R8 by olefin metathesis; 2Pal = N[C@@H](Cc1ccccn1)C(=O)O; R8 = C=CCCCCCC[C@@](C)(N)C(=O)O; Cha = N[C@@H](CC1CCCCC1)C(=O)O; Cba = N[C@@H](CC1CCC1)C(=O)O

T1: full-length beta-catenin (UniProt P35222 2-781, limits assumed)
T1 construct: mature; also called full-length ß-Catenin; β-catenin
T1 sequence (looked up): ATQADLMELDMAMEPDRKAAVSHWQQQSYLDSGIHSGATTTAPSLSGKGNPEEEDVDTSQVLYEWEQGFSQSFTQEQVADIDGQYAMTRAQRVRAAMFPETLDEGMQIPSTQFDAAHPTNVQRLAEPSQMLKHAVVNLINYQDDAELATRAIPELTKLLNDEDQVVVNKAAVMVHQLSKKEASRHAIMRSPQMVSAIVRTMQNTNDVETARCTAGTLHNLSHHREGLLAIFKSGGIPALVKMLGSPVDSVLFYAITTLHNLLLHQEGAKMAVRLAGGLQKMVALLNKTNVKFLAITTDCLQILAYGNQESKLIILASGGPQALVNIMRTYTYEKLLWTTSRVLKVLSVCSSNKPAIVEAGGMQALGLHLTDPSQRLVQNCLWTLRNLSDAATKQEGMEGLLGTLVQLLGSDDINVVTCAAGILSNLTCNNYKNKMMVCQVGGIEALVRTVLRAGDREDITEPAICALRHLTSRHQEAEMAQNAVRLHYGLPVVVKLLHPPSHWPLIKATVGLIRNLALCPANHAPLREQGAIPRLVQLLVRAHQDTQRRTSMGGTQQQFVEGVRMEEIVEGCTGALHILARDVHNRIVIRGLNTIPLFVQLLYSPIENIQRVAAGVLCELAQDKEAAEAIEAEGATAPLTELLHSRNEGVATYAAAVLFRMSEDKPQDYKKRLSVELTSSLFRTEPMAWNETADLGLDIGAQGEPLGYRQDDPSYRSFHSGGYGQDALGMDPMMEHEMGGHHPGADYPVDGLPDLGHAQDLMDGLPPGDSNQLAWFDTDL

B1: FP0566c Isomer 1 (peptide)
peptide: Ac-A[R8]ILDA[2Pal]I[MB(6)][Cha]VW-NH2
modifications: staple 2-9; not fully specified; printed as Ac-A-R8-I-L-D-A-2pyr-I-MB-Cha-V-W-NH2
B2: FP0565c Isomer 1 (peptide)
peptide: Ac-A[R8]ILDA[2Pal]I[MB″][Cba]VW-NH2
modifications: staple 2-9; not fully specified; printed as Ac-A-R8-I-L-D-A-2pyr-I-MB-Cba-V-W-NH2
B3: FP0565c Isomer 2 (peptide)
peptide: Ac-A[R8]ILDA[2Pal]I[MB(6)][Cba]VW-NH2
modifications: staple 2-9; not fully specified; printed as Ac-A-R8-I-L-D-A-2pyr-I-MB-Cba-V-W-NH2

target: T1, full-length beta-catenin; experiment: competition FP; NB = no binding detected
Description: In some embodiments, a competition fluorescence polarization assay is used to assess binding of provided compounds to beta-catenin. In an exemplary procedure, solutions of provided compounds, e.g., provided stapled peptides, were prepared in a buffer (e.g., 50 mM Tris pH 8.0, 250 mM NaCl, 2% glycerol, 0.5 mM EDTA, 0.02% w/v sodium azide) using a 3-fold serial dilution from 5 µM. Probe solution (15 nM full-length ß-Catenin, 20 nM FITC labeled peptide in buffer) was prepared and incubated for a period of time, e.g., 5 minutes, and the a volume, e.g., 40 µL per well plated in suitable plate, e.g., a black polystyrene 384-well plate (Corning). Equal volume of the serial diluted peptide was added to the plate and incubated protected from light for 15 minutes prior to read. Reads were performed on a Spectramax M5 (Molecular Devices) in duplicate. Suitable probe was FITC-PEG1-PQ-S5-ILD-S5-HVRRVWR (SEQ ID NO: 1) (hydrocarbon staple formed by two S5 via olefin metathesis) and/or FITC-bA-PQ-S5-ILD-S5-HVRRVWR (SEQ ID NO: 3) (hydrocarbon staple formed by two S5 via olefin metathesis). […] Another peptide, FPO217c (Ac-AR_8ILDAHIM$B5$RVW (SEQ ID NO: 280), with N-terminal proline removed and valine replaced with isoleucine compared to FP0025c) was prepared.

Binding result, no binding:
AXILDAHAXRVW (not fully specified; Ac-A-R8-I-L-D-A-H-A-MB-R-V-W-NH2; carbamate staple R8/MB) [FP0409c], Ac-A[R8]ILDA[2Pal]I[MB(9)]NVW-NH2 (staple 2-9; not fully specified; printed as Ac-A-R8-I-L-D-A-2pyr-I-MB-N-V-W-NH2) [FP0558c Isomer 2], Ac-A[R8]ILDA[2Pal]I[MB(8)]TVW-NH2 (staple 2-9; not fully specified; printed as Ac-A-R8-I-L-D-A-2pyr-I-MB-T-V-W-NH2) [FP0561c Isomer 2], Ac-A[R8]ILDA[2Pal]I[MB(8)]SVW-NH2 (staple 2-9; not fully specified; printed as Ac-A-R8-I-L-D-A-2pyr-I-MB-S-V-W-NH2) [FP0560c Isomer 1], Ac-A[R8]ILDA[2Pal]I[MB(9)]QVW-NH2 (staple 2-9; not fully specified; printed as Ac-A-R8-I-L-D-A-2pyr-I-MB-Q-V-W-NH2) [FP0559c Isomer 1], B1, B2, Ac-A[R8]ILDA[2Pal]I[MB(9)]NVW-NH2 (staple 2-9; not fully specified; printed as Ac-A-R8-I-L-D-A-2pyr-I-MB-N-V-W-NH2) [FP0558c Isomer 1], Ac-A[R8]ILDA[2Pal]I[MB(8)]VVW-NH2 (staple 2-9; not fully specified; printed as Ac-A-R8-I-L-D-A-2pyr-I-MB-V-V-W-NH2) [FP0562c Isomer 1], Ac-A[R8]ILDA[2Pal]I[MB(8)]TVW-NH2 (staple 2-9; not fully specified; printed as Ac-A-R8-I-L-D-A-2pyr-I-MB-T-V-W-NH2) [FP0561c Isomer 1], Ac-A[R8]ILDA[2Pal]I[MB(9)]LVW-NH2 (staple 2-9; not fully specified; printed as Ac-A-R8-I-L-D-A-2pyr-I-MB-L-V-W-NH2) [FP0557c Isomer 1], Ac-A[R8]ILDA[2Pal]I[MB″]WVW-NH2 (staple 2-9; not fully specified; printed as Ac-A-R8-I-L-D-A-2pyr-I-MB-W-V-W-NH2) [FP0563c Isomer 1], Ac-A[R8]ILDA[2Pal]I[MB(8)]SVW-NH2 (staple 2-9; not fully specified; printed as Ac-A-R8-I-L-D-A-2pyr-I-MB-S-V-W-NH2) [FP0560c Isomer 2], Ac-A[R8]ILDA[2Pal]I[MB(10)]IVW-NH2 (staple 2-9; not fully specified; printed as Ac-A-R8-I-L-D-A-2pyr-I-MB-I-V-W-NH2) [FP0556c Isomer 1], Ac-A[R8]ILDA[2Pal]I[MB(8)]VVW-NH2 (staple 2-9; not fully specified; printed as Ac-A-R8-I-L-D-A-2pyr-I-MB-V-V-W-NH2) [FP0562c Isomer 2], Ac-A[R8]ILDA[2Pal]I[MB(10)]AVW-NH2 (staple 2-9; not fully specified; printed as Ac-A-R8-I-L-D-A-2pyr-I-MB-A-V-W-NH2) [FP0554c Isomer 1], Ac-A[R8]ILDA[2Pal]I[MB″]YVW-NH2 (staple 2-9; not fully specified; printed as Ac-A-R8-I-L-D-A-2pyr-I-MB-Y-V-W-NH2) [FP0564c Isomer 1], Ac-A[R8]ILDA[2Pal]I[MB(10)]AVW-NH2 (staple 2-9; not fully specified; printed as Ac-A-R8-I-L-D-A-2pyr-I-MB-A-V-W-NH2) [FP0554c Isomer 2], Ac-A[R8]ILDA[2Pal]I[MB(10)]FVW-NH2 (staple 2-9; not fully specified; printed as Ac-A-R8-I-L-D-A-2pyr-I-MB-F-V-W-NH2) [FP0555c Isomer 2], Ac-A[R8]ILDA[2Pal]I[MB(10)]FVW-NH2 (staple 2-9; not fully specified; printed as Ac-A-R8-I-L-D-A-2pyr-I-MB-F-V-W-NH2) [FP0555c Isomer 1], Ac-A[R8]ILDA[2Pal]I[MB(10)]IVW-NH2 (staple 2-9; not fully specified; printed as Ac-A-R8-I-L-D-A-2pyr-I-MB-I-V-W-NH2) [FP0556c Isomer 2], Ac-A[R8]ILDA[2Pal]I[MB″]YVW-NH2 (staple 2-9; not fully specified; printed as Ac-A-R8-I-L-D-A-2pyr-I-MB-Y-V-W-NH2) [FP0564c Isomer 2], Ac-A[R8]ILDA[2Pal]I[MB(8)]QVW-NH2 (staple 2-9; not fully specified; printed as Ac-A-R8-I-L-D-A-2pyr-I-MB-Q-V-W-NH2) [FP0559c Isomer 2], Ac-A[R8]ILDA[2Pal]I[MB″]WVW-NH2 (staple 2-9; not fully specified; printed as Ac-A-R8-I-L-D-A-2pyr-I-MB-W-V-W-NH2) [FP0563c Isomer 2], B3, Ac-A[R8]ILDAFI[MB(10)]RVW-NH2 (staple 2-9) [FP0540c], Ac-A[R8]ILDA[2Pal]I[MB(9)]LVW-NH2 (staple 2-9; not fully specified; printed as Ac-A-R8-I-L-D-A-2pyr-I-MB-L-V-W-NH2) [FP0557c Isomer 2]
